According to publication PMC8473235:

The sequences below were run on GST-VPg (Tulane virus) (Tulane virus) (assay: ELASA).

“AGTATACGTATTACCTGCAGCTGTCGATAAAGTGAGTTAAGTCACCGGCCCGGCCTATTCGCGATATCTCGGAGATCTTGC [N11-2]” and “AGTATACGTATTACCTGCAGCTGGAAGGCGGGAAGATTTTTGGTCGACCTGACAACCCGGTCGATATCTCGGAGATCTTGC [T9]” cannot be ordered by binding signal (positive:negative absorbance ratio): > 10 for the first, > 10 for the second.

“AGTATACGTATTACCTGCAGCTCGAGGTATGGCCTTGTCTAGGCGCACCTGACAACCCGGTGCGATATCTCGGAGATCTTGC [T9-2]” and “AGTATACGTATTACCTGCAGCTGTCGTTAATTATTCGTGATCTGACAACCCGATCACTCTCCGATATCTCGGAGATCTTGC [T10-2]” cannot be ordered by binding signal (positive:negative absorbance ratio): > 10 for the first, > 10 for the second.

“AGTATACGTATTACCTGCAGCCGGGTCTCGTCTATGCAGTACTCAAAACGCTTGAGGTACCGACGATATCTCGGAGATCTTGC [N1-2]” and “AGTATACGTATTACCTGCAGCTCACACTCGTTTCTATTACTAAAACATCGTTCCTTTCAGCCGATATCTCGGAGATCTTGC [T5 (= N12-2)]” cannot be ordered by binding signal (positive:negative absorbance ratio): > 10 for the first, > 10 for the second.

“AGTATACGTATTACCTGCAGCCAGAGTTGATGTAAGCTTCGTGTTAGCTCAACTCTTATCGCGATATCTCGGAGATCTTGC [N6]” and “AGTATACGTATTACCTGCAGCAAGGCTTTTTTAAAGGCTAGGCTTGATAATCGGTTAACTCCGATATCTCGGAGATCTTGC [N4-2]” cannot be ordered by binding signal (positive:negative absorbance ratio): > 10 for the first, > 10 for the second.

“AGTATACGTATTACCTGCAGCTCTTCGGTTTAATAAAGTTGGCTAGGAAAGTTTAAAACCGCGATATCTCGGAGATCTTGC [N13]” and “AGTATACGTATTACCTGCAGCAGGGATGTGTTGGATGCATGCCAGGCTTGGTAACATTGTACGATATCTCGGAGATCTTGC [N3]” cannot be ordered by binding signal (positive:negative absorbance ratio): > 5 for the first, > 10 for the second.

“AGTATACGTATTACCTGCAGCAGTGGGTGGTGATGAATTCTGGTCGCGCTGACAACCCGCGCGATATCTCGGAGATCTTGC [N14]” and “AGTATACGTATTACCTGCAGCTAGTAACGATTACCAAAATTCTCCCGAGGCTGACAACCCGCGATATCTCGGAGATCTTGC [T1-2]” cannot be ordered by binding signal (positive:negative absorbance ratio): > 10 for the first, > 10 for the second.
